Substitutions are numbered along the chain they refer to.

The chains are these.
T1: TROP2 on TROP2-positive NCI-H1975 cells (human, UniProt P09758 27-323)
T1 sequence: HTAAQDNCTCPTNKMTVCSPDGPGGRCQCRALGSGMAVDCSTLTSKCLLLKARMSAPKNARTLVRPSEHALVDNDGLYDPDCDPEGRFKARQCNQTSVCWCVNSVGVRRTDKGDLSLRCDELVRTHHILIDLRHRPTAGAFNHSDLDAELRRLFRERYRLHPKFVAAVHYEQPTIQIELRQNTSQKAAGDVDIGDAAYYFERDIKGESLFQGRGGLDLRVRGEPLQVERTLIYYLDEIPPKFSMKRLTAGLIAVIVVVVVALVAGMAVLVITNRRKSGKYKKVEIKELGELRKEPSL

T2: TROP2 on TROP2-positive NCI-H1975 cells (human, UniProt P09758 27-323)
T2 construct: whole, on cells
T2 sequence (looked up): T1 sequence

T3: Human TROP2 Protein, His Tag (Acro Biosystems) (human, UniProt P09758 27-274)
T3 construct: not shown: His tag
T3 sequence (looked up): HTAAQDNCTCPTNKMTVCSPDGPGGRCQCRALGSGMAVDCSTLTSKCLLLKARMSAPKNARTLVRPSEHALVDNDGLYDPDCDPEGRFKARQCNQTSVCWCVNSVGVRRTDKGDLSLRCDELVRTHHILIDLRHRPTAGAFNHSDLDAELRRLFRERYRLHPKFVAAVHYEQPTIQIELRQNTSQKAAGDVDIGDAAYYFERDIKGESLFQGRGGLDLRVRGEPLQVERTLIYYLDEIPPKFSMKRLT

T4: Human TROP2 Protein, His Tag (Acro Biosystems) (human, UniProt P09758 27-274)
T4 construct: also called TACSTD2; not shown: His tag
T4 sequence (looked up): T3 sequence (looked up)

B1: MYT11614 (antibody, human IgG1, V domains shown)
VH: QVQLQQSGSELKKPGASVKVSCKASGYTFTNYGMNWVKQAPGQGLKWMGWINTYTGEPTYTDDFKGRFAFSLDTSVSTAYLQISSLKADDTAVYFCARGGFGSSYWYFDVWGQGSLVTVSS
VL: DIQLTQSPSSLSASVGDRVSITCKASQDVHIAVAWYQQKPGKAPKLLIYSASYRYTGVPDRFSGSGSGTDFTLTISSLQPEDFAVYYCQQHYITPLTFGAGTKVEIK
notes: Human IgG1 heavy chain constant domain and Kappa light chain constant domain; also called Sacituzumab LC variant
B2: MYT13428 (antibody, human IgG1, V domains shown)
VH: B1 VH with K65H
VL: B1 VL with A51H, I93H
notes: also called sacituzumab HC-LC pairing variant
B3: MYT13427 (antibody, human IgG1, V domains shown)
VH: B1 VH with F64H
VL: B1 VL with A51H, I93H
notes: also called sacituzumab HC-LC pairing variant; Sacituzumab pH variant
B4: MYT13370 (antibody, human IgG1, V domains shown)
VH: B1 VH with D63H
VL: B1 VL with V33H
notes: as for B3
B5: MYT11670 (antibody, human IgG1, V domains shown)
VH: QVQLVQSGAEVKKPGASVKVSCKASGYTFTTAGMQWVRQAPGQGLEWMGWINTHSGVPKYAEDFKGRVTISADTSTSTAYLQLSSLKSEDTAVYYCARSGFGSHYWYFDVWGQGTLVTVSS
VL: B1 VL with L4M, S20T, H30S, I31T, D60S, A100Q, V104L
notes: Human IgG1 heavy chain constant domain and Kappa light chain constant domain; also called Datopotamab pH variant
B6: MYT13369 (antibody, human IgG1, V domains shown)
VH: B1 VH with D62H
VL: B1 VL with V33H
notes: as for B2
B7: MYT11704 (antibody, human IgG1, V domains shown)
VH: QVQLQESGPGLVKPSETLSLTCTVSGGSISSYGVHWIRQPPGKGLEWIGVIWTSGVTDYNSALMGRVTISVDTSKNQFSLKLSSVTAADTAVYYCARDGDYDRYTMDYWGQGTLVTVSS
VL: DIVMTQSPDSLAVSLGERATINCRASKSVSTSGYSYMHWYQQKPGQPPKLLIYLASNLESGVPDRFSGSGSGTDFTLTISSLQAEDVAVYYCQHSRELPYTFGQGTKLEIK
notes: Human IgG1 heavy chain constant domain and Kappa light chain constant domain; also called hu7E6SVG WT; hu7E6SVG
B8: MYT12459 (antibody, human IgG1, V domains shown)
VH: B7 VH
VL: B7 VL with E59H, Q93H, E97H
notes: Human IgG1 heavy chain constant domain and Kappa light chain constant domain; also called hu7E6SVG pH variant
B9: MYT13428 (antibody, human IgG1, V domains shown)
VH: B1 VH with K65H
VL: B1 VL with A51H, I93H
notes: IgG; also called Sacituzumab HC-LC pairing variant
B10: MYT13425 (antibody, human IgG1, V domains shown)
VH: B1 VH with D62H
VL: B1 VL with A51H, I93H
notes: as for B9
B11: MYT13427 (antibody, human IgG1, V domains shown)
VH: B1 VH with F64H
VL: B1 VL with A51H, I93H
notes: as for B9
B12: MYT13258 (antibody, V domains shown)
VH: B5 VH with F101H, H104S
VL: B1 VL with L4M, S20T, V29H, H30S, I31T, D60S, A100Q, V104L
notes: Full-length IgG from Expi293 supernatant; also called datopotamab heavy chain and light chain pairing variant
B13: MYT13259 (antibody, V domains shown)
VH: B5 VH
VL: B1 VL with L4M, S20T, V29H, H30S, I31T, D60S, A100Q, V104L
notes: as for B12
B14: MYT13393 (antibody, V domains shown)
VH: B1 VH with D62H
VL: B1 VL with H30S, V33H, Y53H
notes: Sacituzumab HC-LC pairing variant
B15: MYT13394 (antibody, V domains shown)
VH: B1 VH with D63H
VL: B1 VL with H30S, V33H, Y53H
notes: as for B14
B16: MYT13389 (antibody, V domains shown)
VH: B1 VH with G66H
VL: B1 VL with S52H
notes: as for B14
B17: MYT13397 (antibody, V domains shown)
VH: B1 VH with G66H
VL: B1 VL with H30S, V33H, Y53H
notes: as for B14
B18: MYT13384 (antibody, V domains shown)
VH: B1 VH with Y60H
VL: B1 VL with S52H
notes: as for B14
B19: MYT13396 (antibody, V domains shown)
VH: B1 VH with K65H
VL: B1 VL with H30S, V33H, Y53H
notes: as for B14
B20: MYT13381 (antibody, V domains shown)
VH: B1 VH with G66H
VL: B1 VL with A51H
notes: as for B14
B21: MYT13391 (antibody, V domains shown)
VH: B1 VH with G33H
VL: B1 VL with H30S, V33H, Y53H
notes: as for B14
B22: MYT13380 (antibody, V domains shown)
VH: B1 VH with K65H
VL: B1 VL with A51H
notes: as for B14
B23: MYT13375 (antibody, V domains shown)
VH: B1 VH with G33H
VL: B1 VL with A51H
notes: as for B14
B24: MYT13390 (antibody, V domains shown)
VH: B1 VH with Y32H
VL: B1 VL with H30S, V33H, Y53H
notes: as for B14

The target in one test is T1, TROP2 on TROP2-positive NCI-H1975 cells. Kind of test: cell-based or functional assay.
As for B1, the “Cytotox Fold over datopotamab (FOD)” value was 1.35 fold over datopotamab.

As to B2, the “Cytotox Fold over datopotamab (FOD)” value amounted to 1.18 fold over datopotamab. Take B3: the “Cytotox Fold over datopotamab (FOD)” value was found to be 1.19 fold over datopotamab. Turning to B4, the “Cytotox Fold over datopotamab (FOD)” value turned out to be 1.28 fold over datopotamab. For the molecule B5, the “Cytotox Fold over datopotamab (FOD)” value stood at 1.41 fold over datopotamab. Take B6: the “Cytotox Fold over datopotamab (FOD)” value was found to be 1.33 fold over datopotamab. Same read-out and setting: the value for B7 was 1.22 fold over datopotamab; that for B8 was 1.35 fold over datopotamab.

In a further test the target is T2, TROP2 on TROP2-positive NCI-H1975 cells. The experiment in a line: binding to TROP2-positive NCI-H1975 cells at pH 7.4.
As to B9, the half-inhibitory concentration (IC50) (usually the concentration at which inhibition is half-maximal) came out at 1.56 nM.

On to B10, for which the half-maximal inhibitory concentration (IC50) was 0.81 nM. Same read-out and setting: the value for B11 was 1 nM.

The next test addresses T1, TROP2 on TROP2-positive NCI-H1975 cells. Kind of test: binding to NCI-H1975 cells at pH 6.4, maximal MFI.
Consider B1, for which the “Max MFI (@ pH 6.4)-H1975” value was found to be 19400 MFI.

Turning to B2, the “Max MFI (@ pH 6.4)-H1975” value stood at 6720 MFI. On to B3, for which the “Max MFI (@ pH 6.4)-H1975” value was determined as 6110 MFI.

Take B4: the “Max MFI (@ pH 6.4)-H1975” value came to 13400 MFI. On the same count and under the same terms, next, B5: 20000 MFI; B6: 17100 MFI; B7: 31500 MFI.

B8: the “Max MFI (@ pH 6.4)-H1975” value was determined as 18700 MFI.

The next test deals with T3, Human TROP2 Protein, His Tag (Acro …). Kind of test: BLI (Octet). In general terms: BLI is a label-free optical method that tracks binding on a fibre tip over time.
Turning to B12, the binding result is reported as “binds”. For the molecule B13, the binding result is “binds”.

The target of the next test is T4, Human TROP2 Protein, His Tag (Acro …). The experiment in a line: BLI (Octet) [1/2].
For B14, the binding result was “binds”. In the case of B15, the binding result is “binds”. As to B16, the binding result was “binds”. For the molecule B17, the binding result was “binds”. On the same count and under the same terms, the value for B18 was “binds”. In the case of B19, the binding result is reported as “binds”. In the case of B20, the binding result was “binds”. In the case of B21, the binding result is reported as “binds”. Take B22: the binding result is “binds”. Still for that read-out and setting: next, B23: “binds”. Turning to B24, the binding result is “binds”.

The target of a further test is T1, TROP2 on TROP2-positive NCI-H1975 cells. Kind of test: cell-based or functional assay. The source holds these as a separate data set.
Consider B2, for which the “FOW H1975 (10 nM)” value was 1.55 fold over parent antibody. For the molecule B3, the “FOW H1975 (10 nM)” value worked out at 1.56 fold over parent antibody. Take B4: the “FOW H1975 (10 nM)” value was 1.43 fold over parent antibody.

As for B6, the “FOW H1975 (10 nM)” value came to 1.44 fold over parent antibody.

In the next test the target is T2, TROP2 on TROP2-positive NCI-H1975 cells. The experiment in a line: binding to TROP2-positive NCI-H1975 cells at pH 6.7.
With B9, the half-maximal inhibitory concentration (IC50) was 8.29 nM. Still for that read-out and setting: the value for B10 was 2.66 nM; that for B11 was 4.39 nM.

In a further test the target is T3, Human TROP2 Protein, His Tag (Acro …). The experiment in a line: Octet (BLI); antigen and pH not given.
On to B9, for which the affinity, expressed as Kd, was 2.08 nM and the “Octet response at 33.33 nM (Y-Axis) nm” value came out at 0.141 nm. For B10, the Kd (in general, the concentration at which binding is half-saturated) is 3.9 nM and the “Octet response at 33.33 nM (Y-Axis) nm” value is 0.135 nm. With B11, the Kd amounted to 2.12 nM and the “Octet response at 33.33 nM (Y-Axis) nm” value was 0.134 nm.

The values are drawn from US20260274985A1 (MYTHIC THERAPEUTICS, published 2026).
